Experimental data published in publication PMC2138052.

Molecular target: Rabbit muscle F-actin (rabbit) (UniProt P68135)
Test: co-sedimentation

stoichiometry N (cofilin/actin): 1.16
Substance: Recombinant human cofilin (from UniProt P23528 1-166) (natural protein)
